Experimental data published in the supplement of paper PMC11246515.
± gives the standard deviation of the averaged measurements.

Experiment: total protein half-life in vivo (active degradation + dilution); higher = more stable protein
[1] = E. coli NCM3722 delta-clpP delta-lon delta-hslV, growth: N-lim chemostat, doubling time 6 h
[2] = E. coli NCM3722 delta-hslV, growth: N-lim chemostat, doubling time 6 h
[3] = E. coli NCM3722 delta-lon, growth: N-lim chemostat, doubling time 6 h
[4] = E. coli NCM3722 delta-smpB, growth: N-lim chemostat, doubling time 6 h
[5] = wild type E. coli NCM3722, growth: C-lim chemostat, doubling time 3 h
[6] = wild type E. coli NCM3722, growth: C-lim chemostat, doubling time 6 h
[7] = wild type E. coli NCM3722, growth: C-lim chemostat, doubling time 12 h
[8] = wild type E. coli NCM3722, growth: N-lim chemostat, doubling time 6 h
[9] = wild type E. coli NCM3722, growth: N-lim chemostat, doubling time 12 h
[10] = wild type E. coli NCM3722, growth: P-lim chemostat, doubling time 6 h
[11] = wild type E. coli NCM3722, growth: P-lim chemostat, doubling time 12 h
[12] = E. coli NCM3722 delta-clpP, growth: N-lim chemostat, doubling time 6 h

Sequence | total protein half-life in vivo [1] [h] | total protein half-life in vivo [2] [h] | total protein half-life in vivo [3] [h] | total protein half-life in vivo [4] [h] | total protein half-life in vivo [5] [h] | total protein half-life in vivo [6] [h] | total protein half-life in vivo [7] [h] | total protein half-life in vivo [8] [h] | total protein half-life in vivo [9] [h] | total protein half-life in vivo [10] [h] | total protein half-life in vivo [11] [h] | total protein half-life in vivo [12] [h]
MKKIAFGCDHVGFILKHEIVAHLVERGVEVIDKGTWSSERTDYPHYASQVALAVAGGEVDGGILICGTGVGISIAANKFAGIRAVVCSEPYSAQLSRQHNDTNVLAFGSRVVGLELAKMIVDAWLGAQYEGGRHQQRVEAITAIEQRRN | 4.69 ± 0.15 | 3.77 ± 0.19 | 3.82 ± 0.13 | 3.45 ± 0.1 | 3.05 ± 0.37 | 5.6 ± 0.41 | 9.29 ± 1.4 | 3.725 ± 0.033 | 5.17 ± 1 | 5.32 ± 0.18 | 10.2 ± 0.91 | 
MKKIAITCALLSSLVASSVWADAASDLKSRLDKVSSFHASFTQKVTDGSGAAVQEGQGDLWVKRPNLFNWHMTQPDESILVSDGKTLWFYNPFVEQATATWLKDATGNTPFMLIARNQSSDWQQYNIKQNGDDFVLTPKASNGNLKQFTINVGRDGTIHQFSAVEQDDQRSSYQLKSQQNGAVDAAKFTFTPPQGVTVDDQRK | 4.62 ± 0.5 | 7.06 ± 1.3 |  |  | 3.364 ± 0.025 | 5.679 ± 0.056 | 9.08 ± 0.39 | 6.25 ± 0.41 | 12.5 ± 0.7 | 5.978 ± 0.007 | 12.124 ± 0.011 | 5.76 ± 1
MKKIECACNFLMDKDAQGYIDLSDLDLTSCHFKGDVISKVSFLSSNLQHVTFECKEIGDCNFTTAIVDNVIFRCRRLHNVIFIKASGECVDFSKNILDTVDFSQSQLGHSNFRECQIRNSNFDNCYLYASHFTRAEFLSAKEISFIKSNLTAVMFDYVRMSTGNFKDCITEQLELTIDYSDIFWNEDLDGYINNIIKMIDTLPDNAMILKSVLAVKLVMQLKILNIVNKNFIENMKKIFSHCPYIKDPIIRSYIHSDEDNKFDDFMRQHRFSEVNFDTQQMIDFINRFNTNKWLIDKNNNFFIQLIDQALRSTDDMIKANVWHLYKEWIRSDDVSPIFIETEDNLRTFNTNELTRNDNIFILFSSVDDGPVMVVSSQRLHDMLNPTKDTNWNSTYIYKSRHEMLPVNLTQETLFSSKSHGKYALFPIFTASWRAHRIMNKGV |  |  |  |  |  |  | 11.2 |  |  |  |  | 
MKKIICLVITLLMTLPVYAKLTAHEEARINAMLEGLAQKKDLIFVRNGDEHTCYEAVSHLRLKLGNTRNRIDTAEQFIDKVASSSSITGKPYIVKIPGKSDENAQPFLHALIAQTDKTVPAEGN |  |  |  |  |  |  | 3.18 |  |  |  |  | 
MKKILTTPIKAEDLQDIRVGDVIYLTGTLVTCRDVCHRRLIELKRPIPYDLNGKAIFHAGPIVRKNGDKWEMVSVGPTTSMRMESFEREFIEQTGVKLVVGKGGMGPLTEEGCQKFKALHVIFPAGCAVLAATQVEEIEEVHWTELGMPESLWVCRVKEFGPLIVSIDTHGNNLIAENKKLFAERRDPIVEEICEHVHYIK [P0AC35] | 6.21 |  |  |  |  |  |  |  |  |  |  | 
MKKIPLGTTDITLSRMGLGTWAIGGGPAWNGDLDRQICIDTILEAHRCGINLIDTAPGYNFGNSEVIVGQALKKLPREQVVVETKCGIVWERKGSLFNKVGDRQLYKNLSPESIREEVAASLQRLGIDYIDIYMTHWQSVPPFFTPIAETVAVLNELKSEGKIRAIGAANVDADHIREYLQYGELDIIQAKYSILDRAMENELLPLCRDNGIVVQVYSPLEQGLLTGTITRDYVPGGARANKVWFQRENMLKVIDMLEQWQPLCARYQCTIPTLALAWILKQSDLISILSGATAPEQVRENVAALNINLSDADATLMREMAEALER | 3.71 ± 1.3 | 4.29 ± 0.48 |  | 4.19 ± 0.18 | 2.96 ± 0.2 | 5.64 ± 1.4 | 8.09 ± 1.9 | 3.97 ± 0.2 | 6.75 | 6.344 ± 0.018 | 11.9 ± 0.44 | 
MKKKILAFGLISALFCSTPAMADMNRTTKGALLGAGVGLLTGNGVNGVLKGAAVGAGVGAVTEKGRDGKNARKGAKVGAAVGAVTGVLTGNGLEGAIKGAVIGGTGGAILGKMK [Q7DFV3] |  | 1.46 ± 0.28 |  | 1.39 | 1.42 ± 0.11 | 1.67 |  | 1.78 ± 0.36 | 1.87 | 2.752 ± 0.007 | 5.14 ± 0.75 | 
MKKKRPVLQDVADRVGVTKMTVSRFLRNPEQVSVALRGKIAAALDELGYIPNRAPDILSNATSRAIGVLLPSLTNQVFAEVLRGIESVTDAHGYQTMLAHYGYKPEMEQERLESMLSWNIDGLILTERTHTPRTLKMIEVAGIPVVELMDSKSPCLDIAVGFDNFEAARQMTTAIIARGHRHIAYLGARLDERTIIKQKGYEQAMLDAGLVPYSVMVEQSSSYSSGIELIRQARREYPQLDGVFCTNDDLAVGAAFECQRLGLKVPDDMAIAGFHGHDIGQVMEPRLASVLTPRERMGSIGAERLLARIRGESVTPKMLDLGFTLSPGGSI [P0ACP5] | 6.42 ± 0.18 | 5.79 ± 0.47 | 5.99 ± 1 | 5.75 ± 0.31 | > 4 | 6.6 ± 0.52 |  | 6.14 ± 0.46 | 14.4 ± 1.9 |  | > 16 | 
MKKKTTLSEEDQALFRQLMAGTRKIKQDTIVHRPQRKKISEVPVKRLIQEQADASHYFSDEFQPLLNTEGPVKYVRPDVSHFEAKKLRRGDYSPELFLDLHGLTQLQAKQELGALIAACRREHVFCACVMHGHGKHILKQQTPLWLAQHPHVMAFHQAPKEYGGDAALLVLIEVEEWLPPELP [P0A8B2] | 3.99 ± 0.33 | 3.03 ± 0.56 |  | 3.68 ± 0.36 | 2.46 ± 0.48 | 3.84 ± 0.16 | 5.34 | 2.99 ± 0.086 | 3.87 ± 0.36 | 3.06 ± 0.1 | 6 ± 0.6 | 2.898 ± 0.019
MKKLAIAGALLLLAGCAEVENYNNVVKTPAPDWLAGYWQTKGPQRALVSPEAIGSLIVTKEGDTLDCRQWQRVIAVPGKLTLMSDDLTNVTVKRELYEVERDGNTIEYDGMTMERVDRPTAECAAALDKAPLPTPLP | 7.04 ± 1.3 | 6.36 ± 0.14 | 7.26 ± 0.97 | 6.12 ± 0.1 | 3 ± 0.23 | 6.16 ± 0.61 |  | 4.4 ± 3.5 | 12.5 ± 0.86 | 6.19 ± 0.15 | 12.4 ± 0.42 | 6.08 ± 0.62
